Data reported in the supplement of paper PMC10567573.

B1: TPPP (parent)
chain: LCKDCQVIDGRNVTVTDVDIVFSK
B2: CSNK1G1 (parent)
chain: GSLPWQGLKADTLKERYQKIGDTK

Variants of: B1
Experiment: protein stability index of a GFP-peptide fusion (GPS, HEK-293T) (PSI 1-6); higher = more stable
Details: c terminus: a fixed tail appended
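Note: lentivirally expressed fusions sorted by FACS into six bins by GFP to DsRed ratio, PSI derived from sequencing read proportions per bin multiplied by bin number.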

Protein stability index of substitutions, site by site:
L1: P 2.85, K 3.47, D 4.05, N 3.32, Y 2.08, C 1.85, T 2.73, V 2.71, M 2.26, S 2.91, Q 3.08, I 2.01, H 2.7, E 3.41, R 1.57, F 2.25, W 1.89, A 2.54
K3: A 2.51, F 1.65, H 2.52, E 3.21, L 1.92, I 1.05, G 3.34, C 1.89, D 3.3
C2: K 3.07, R 2.79, G 3.37, H 3.42, Q 4.18, F 2.48, A 3.56, M 3.24, N 3.59, E 4.36, D 4.08, T 3.61, L 3.09, Y 2.75, I 2.93, S 3.54, P 4.04, V 3.04, W 2.56

Variants of: B2
Experiment: as above
Details: c terminus: a fixed tail appended

Protein stability index of substitutions, site by site:
A10: G 4.46, D 5.01, C 3.48, Q 4, S 4.2, H 4.11, W 3.56, K 4.28, F 3.5, N 4.62, I 3.6, V 4.19, L 3.32, Y 3.63, R 4.06, P 4.39, E 4.06, T 4.48, M 3.7
K19: I 3.54, C 3.56, P 3.95, F 3.05, Q 4.8, H 4.24, R 3.75, A 3.94, M 3.68, S 3.95, L 3.74, D 4.67, E 4.45, Y 3.86, G 4.17, T 4.3, N 4.35, W 2.83, V 3.83
Q18: H 4.09, S 4.35, R 3.96, K 3.62, C 3.76, P 4.66, E 4.54, M 3.64, A 4.46, N 4.11, W 3.34, Y 3.74, G 4.09, V 3.64, F 2.91, T 4.26, I 3.57, D 4.47, L 3.91
I20: D 4.86, F 4.26, V 4.3, E 5.24, A 4.67, K 4.33, W 3.62, N 4.62, G 5, Q 4.36, T 4.46, C 4.35, M 4.53, P 4.75, H 4.47, L 3.86, R 4.2, Y 4.29, S 4.65
R16: I 3.26, V 4.25, L 4.11, D 4.54, K 4.23, Y 4.01, M 4.11, N 4.68, E 4.69, Q 4.44, H 4.35, P 4.37, A 4.29, T 4.07, W 2.99, C 4.29, F 3.98, S 4.71, G 4.89
T12: W 3.27, Y 3.51, H 3.71, M 3.94, L 3.37, S 4.58, K 4.28, A 3.99, E 4.85, P 4.86, C 4.06, R 4.33, Q 4.19, V 4.2, D 4.68, G 3.83, F 2.86, I 3.42, N 4.07
E15: I 3.26, S 3.47, L 3.66, M 3.51, F 3.56, W 2.77, H 3.43, C 3.37, G 4.07, D 4.25, A 3.74, V 3.31, T 3.93, Y 3.1, R 3.98, P 3.97, N 3.39, K 3.29, Q 4.09
G21: K 4.71, T 3.83, D 4.57, I 3.41, M 3.87, W 3.01, R 4.16, L 4, V 3.64, Q 4.44, C 3.29, H 4.15, A 3.59, F 3.42, P 4.62, N 3.86, Y 3.74, S 4.3, E 4.37
Y17: G 5.36, Q 4.81, L 4.19, V 4.04, P 4.88, E 5.71, M 4.23, A 4.98, D 4.99, I 4.21, T 4.83, F 4.19, N 4.98, H 5.05, S 4.45, W 3.82, K 4.72, C 4.27, R 4.13
D22: A 3.06, G 3.74, H 3.75, P 3.7, S 4.05, I 3.41, V 3.65, Y 2.98, F 3, E 3.91, R 3.43, N 3.2, W 2.64, K 3.56, M 3, Q 3.82, C 3.81, T 3.52, L 3.32
K9: W 3.58, V 3.77, Y 4.13
L13: S 4.62, A 3.96, I 4.48, H 4.64, W 3.05, C 3.71, V 3.7, E 4.66, D 4.49, P 4.06, N 4.81, Y 3.72, T 4.65, F 4.2, K 4.15, G 4.12, M 3.46, Q 4.47, R 4.27
T23: Y 3.36, V 4.01, F 3.38, D 4.55, I 3.81, L 3.82, W 2.78, N 3.92, P 3.91, M 3.97, E 4.68, G 4.34, S 4.53, Q 3.96, A 4.46, C 3.4, H 4.08, K 4.74, R 3.84
K14: R 3.8, A 4.55, W 2.74, N 4.58, T 4.09, S 3.88, D 4.02, H 4.37, I 3.75, G 3.08, M 3.36, F 3.13, Q 3.52, V 4.14, E 4.23, C 3.81, P 4.41, L 3.1, Y 3.37
D11: G 3.8, E 4.13, I 3.73, A 3.64, T 3.61, C 3.63, R 3.57, P 4.11, Q 3.56, W 2.9, V 2.8, K 3.93, L 3.76, M 3.32, S 4.11, N 3.37, H 3.69, F 2.89, Y 3.44
K24: D 3.25, R 3.72, I 3.53, G 3.79, T 4.08, Y 2.63, C 3.4, E 4.88, W 2.95, H 3.6, L 3.3, F 3, A 4.01, Q 4.07, N 3.91, M 3.19, V 3.39, P 4.2, S 3.79
